A word on the EC50: it is the midpoint of the concentration-response curve. One may read the IC50 as the concentration needed to halve the response being measured. Usually Kd stands for the free concentration of one partner at which half of the binding sites on the other are occupied at equilibrium, for simple one-to-one binding. As usually defined, the koff is a measure of how fast the partners let go of each other.

The target of experiment [1] is T1, human CTLA-4 expressed on cells (human, UniProt P16410 36-223).
T1 construct: whole, on cells; On stably or transiently transfected HEK293 cells; also called hCTLA-4; HEK293-hCTLA-4 cells
T1 sequence (P16410 36-223): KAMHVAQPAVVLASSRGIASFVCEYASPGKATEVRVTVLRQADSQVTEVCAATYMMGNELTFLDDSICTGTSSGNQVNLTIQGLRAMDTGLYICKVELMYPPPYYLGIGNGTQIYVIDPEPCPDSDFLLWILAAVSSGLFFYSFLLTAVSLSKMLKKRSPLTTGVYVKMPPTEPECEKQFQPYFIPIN
The experiment is described as follows: flow cytometry on HEK293-hCTLA-4 cells, reference ipilimumab. Here is the method:
(§1) To test the binding of antibodies to CTLA-4 under more physiological conditions, the binding of CTLA-4 antibodies to cell-surface CTLA-4 was tested. […] The surface expression of hCTLA-4 in the obtained cell line was tested using a commercial anti-CTLA-4 antibody and compared to the parent cell line (HEK293 without transfection). […] The anti-CTLA-4 antibodies were incubated in serial dilution concentrations with the HEK293-hCTLA-4 cells for 1 hour on ice. Following a wash step, an anti-human antibody conjugated to ALEXA FLUOR® 647® was added for an additional hour. The cells were washed, and propidium iodide (PI) was added to exclude dead cells. The fluorescent signal was measured using FACS and analyzed. Dead cells were removed based on the PI signal. The population was gated based on forward and side scatter (FSC and SSC) parameters, and doublets were removed. The Median Fluorescent Intensity (MFI) of the appropriate channel was calculated for the live single cells from each group. The MFI was plotted versus antibody concentration in Prism software (V6.01) and kinetic parameters were obtained using a curve fit dose response function with four parameters. […] The lower EC₅₀ values indicate increased binding affinity to cell surface hCTLA-4.
For orientation: A flow cytometer gives signals particle by particle.

Experiment [2] addresses T1, human CTLA-4 expressed on cells. As to the kind of experiment: flow cytometry on HEK293-hCTLA-4 cells, reference tremelimumab. Here is the method:
as §1

In experiment [3] the target is T2, Pig (Sus scrofa) CTLA-4 on HEK293 cells (Sus scrofa, UniProt Q9MYX7 36-223).
T2 construct: whole, on cells; also called pig CTLA-4
T2 sequence (Q9MYX7 36-223): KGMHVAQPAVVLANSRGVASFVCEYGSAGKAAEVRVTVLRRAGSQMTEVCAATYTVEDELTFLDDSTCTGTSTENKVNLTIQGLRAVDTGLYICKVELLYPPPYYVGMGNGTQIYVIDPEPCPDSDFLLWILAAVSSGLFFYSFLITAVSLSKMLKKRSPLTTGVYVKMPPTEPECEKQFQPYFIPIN
The experiment is described as follows: flow cytometry on HEK293 cells transiently expressing pig CTLA-4. On the procedure:
(§2) Macaque (Macaca fascicularis), pig (Sus scrofa) and mouse (Mus musculus) CTLA-4 proteins were transiently expressed on the surface of HEK293 cells. […] Binding was measured using FACS and analyzed.

Experiment [4] deals with T3, Mouse (Mus musculus) CTLA-4 on HEK293 cells (Mus musculus, UniProt P09793 36-223).
T3 construct: whole, on cells; also called mouse CTLA-4
The experiment is described as follows: flow cytometry on HEK293 cells transiently expressing mouse CTLA-4. On the procedure:
as §2

Experiment [5] deals with T4, Macaque (Macaca fascicularis) CTLA-4 on HEK293 cells (Macaca fascicularis, UniProt G7PL88 36-223).
T4 construct: whole, on cells; also called macaque CTLA-4
T4 sequence (G7PL88 entry or part of it): as the sequence (P16410 36-223) above, with S14N, I18T, L106M counted along it
As to the kind of experiment: flow cytometry on HEK293 cells transiently expressing macaque CTLA-4. Here is the method: as §2

The target in experiment [6] is T1, human CTLA-4 expressed on cells. As to the kind of experiment: flow cytometry, inhibition of CD80-mFC binding to HEK293-hCTLA-4 cells. On the procedure: (§3) As part of their activity, CTLA-4 therapeutic antibodies block the interaction between CTLA-4 and its ligands, leaving the ligands free for CD28 binding. […] First, HEK293-hCTLA-4 cells were incubated with the tested antibodies in a serial dilution for 30 minutes. […] The fluorescence was measured and analyzed. The experiment was performed in triplicate and is representative of three biological repeats.

The target is the same in experiment [7]. The experiment is described as follows: flow cytometry, inhibition of CD86-mFC binding to HEK293-hCTLA-4 cells. On the procedure:
as §3

Experiment [8] has as its target T5, Recombinant human CTLA-4-his (Sino Biologicals, 11159-H08H) (human, UniProt P16410 36-162).
T5 construct: Bought protein; also called dimer hCTLA-4; not shown: his tag
As to the kind of experiment: SPR (Biacore T100), antibody captured on anti-human chip, CTLA-4-his in solution. On the procedure:
Recombinant human CTLA-4-his (Sino Biologicals, 11159-H08H) was added in a serial 2-fold dilution, starting at a concentration of 500nM. […] The measurement was corrected using the baseline channel and the protein-antibody interaction was measured by the change in surface resonance and quantified with Biacore T100 control software (version 2.0.4).
Background: Surface plasmon resonance follows binding to a sensor surface in real time, without labels.

Experiment [9] has as its target T2, Pig (Sus scrofa) CTLA-4 on HEK293 cells. The experiment is described as follows: flow cytometry on HEK293 cells transiently expressing pig CTLA-4, reference ipilimumab. Here is the method:
as §2

The target of experiment [10] is T3, Mouse (Mus musculus) CTLA-4 on HEK293 …. As to the kind of experiment: flow cytometry on HEK293 cells transiently expressing mouse CTLA-4, reference ipilimumab. Here is the method: as §2
The target in experiment [11] is T4, Macaque (Macaca fascicularis) CTLA-4 on …. The experiment is described as follows: flow cytometry on HEK293 cells transiently expressing macaque CTLA-4, reference ipilimumab. On the procedure:
as §2

Experiment [12] deals with T3, Mouse (Mus musculus) CTLA-4 on HEK293 …. As to the kind of experiment: flow cytometry on HEK293 cells transiently expressing mouse CTLA-4, reference tremelimumab. Here is the method: as §2
In experiment [13] the target is T1, human CTLA-4 expressed on cells. The experiment is described as follows: flow cytometry, inhibition of CD80-mFC binding to HEK293-hCTLA-4 cells, reference ipilimumab. Here is the method: as §3
For experiment [14] the target is unchanged. As to the kind of experiment: flow cytometry, inhibition of CD86-mFC binding to HEK293-hCTLA-4 cells, reference ipilimumab. Here is the method: as §3
Experiment [15] has the same target. As to the kind of experiment: flow cytometry, inhibition of CD80-mFC binding to HEK293-hCTLA-4 cells, reference tremelimumab. On the procedure:
as §3

The target of experiment [16] is T5, Recombinant human CTLA-4-his (Sino …). As to the kind of experiment: ELISA, plate coated with non-reduced CTLA-4-his (dimer), anti-human-HRP, OD450; the box beside the curves does not name the quantity, the value lies at the half-maximal point of the curve (OD450 0.2 to 1.4). On the procedure:
hCTLA-4 can exist in monomer and dimer forms on the cell surface. […] The recombinant protein was incubated for 10 minutes with 100 mM DTT to reduce the protein to its monomeric form. […] The plates were coated overnight at 4° C., followed by a wash step and blocking with 20% milk for 1 hour at 37° C. […] The plate was washed and a secondary anti-human-HRP antibody (Jackson) was added at a 1:5000 dilution. A TMB solution was added, followed by stop solution and the OD at 450 nm was measured. Data was analyzed with Prism software.
A general note: ELISA stands for enzyme-linked immunosorbent assay.

T5 sequence (P16410 36-162 limits assumed): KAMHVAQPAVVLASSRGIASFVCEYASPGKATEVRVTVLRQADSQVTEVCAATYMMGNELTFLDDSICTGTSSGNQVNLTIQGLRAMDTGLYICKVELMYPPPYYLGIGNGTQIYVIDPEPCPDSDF

B1: Ab55h (antibody, V domains shown)
VH: QVQLQESGPGLVKPSETLSLTCAVSGYSISGDYYWGWIRQPPGKGLEWIGSIYHSGYTYYNPSLKSRVTISVDTSKNQFSLKLSSVTAADTAVYYCARDSGWYVIAFDYWGQGTLVTVSS
VL: EIVMTQSPATLSVSPGERATLSCRASQSVSSNLAWYQEKPGQAPRLLIYGASTRATGIPARFSGSGSGTEFTLTISSLQSEDFAVYYCQQYNNWPPLTFGGGTKVEIK
notes: Human form, compared with an hIgG1 isotype control
With B1, the “Ratio Ipilimumab:Ab55h of EC50” value in [1] worked out at 6.1 fold; in [9], 5590 fold; in experiment [10], 0.18 fold; in experiment [11] it was 2.6 fold. The “Ratio Tremelimumab:Ab55h of EC50” value stood at 7.5 fold in [2] and 3 fold in experiment [12]. Also, the 50% effective concentration (EC50) in [3] turned out to be 0.12 nM; in [4], 34 nM; in experiment [5] it was 0.3 nM; in experiment [16], 0.008 nM. The IC50 in [6] was 1.6 nM; in [7], 1.5 nM. Moreover, the Kd in [8] turned out to be 0.86 nM. In experiment [8], the koff was 0.0006 s⁻¹. Besides, the “Ratio Ipilimumab:Ab55h of IC50” value in experiment [13] was 3 fold; in [14], 2.2 fold. In addition, the “Ratio Tremelimumab:Ab55h of IC50” value in [15] came out at 1.6 fold.

Source of the values: patent US20210355220A1 (TIKCRO TECHNOLOGIES, published 2021).
